Measured values: patent US12584139B2, “Nucleic acid construct set, kit, detection method and method for predicting drug effect” (KABUSHIKI KAISHA TOSHIBA, priority 2020, dated 2026)

Tested on: human mammary tumor-derived cell line (MCF-7)
Assay: NanoLuc luminescence assay after transfection of lipid particles encapsulating vectors 1 and vector 2
Assay type: cell-based
Details: for luminescence amount ratio (luminescence intensity with vector 2 alone assumed to be 1): vector 1 (50 ng/well) together with vector 2 (1 ng/well), MCF-7, 48 hours; for NanoLuc luminescence intensity (RLU): vector 1 (50 ng/well) transfected together with vector 2 (1 ng/well), lipid particles, MCF-7, 48 hours after addition
Method: A human mammary tumor-derived cell line (MCF-7) was subjected to adhesion culture at 37° C. in a 5% CO2 atmosphere in a culture flask using a medium (MEM, GIBCO) to which 10% fetal bovine serum (FBS) was added. After the culture, the medium was removed, and the cells were washed with PBS, and then the cells were detached by 0.25% trypsin-EDTA treatment. Then, the cells were suspended in a medium to which 10% FBS was added to inactivate trypsin. After recovering the cells by centrifugation, the cells were suspended in a medium to which 10% FBS was added to be 2.0×10^5 cells/mL. To a 96 well culture dish (manufactured by Thermo Fisher Scientific), 200 μL of the cell suspension was added to be 4.0×10^4 cells/well.
Next, the lipid particles encapsulating the three types of vectors 1 prepared in Example 3 were added to the wells to be a DNA concentration of 50 ng/well. At the same time, the lipid particles encapsulating the vector 2 prepared in Example 3 were further added to the wells to be a DNA concentration of 1 ng/well. As a control, a well to which only the vector 2 was added was also provided. Therefore, a sample to which only the vector 2 was added, a sample to which the vector 1-10 and the vector 2 were added, a sample to which the vector 1-20 and the vector 2 were added, and a sample to which the vector 1-30 and the vector 2 were added were obtained. After the addition, the cells were cultured at 37° C. in a 5% CO2 atmosphere.
48 hours after the addition of the lipid particles, the culture plate was taken out of the incubator, and the medium was removed. Then, the cells were washed with PBS, Glo Lysis Buffer (Promega) was added thereto at 100 μL/well, and the resulting mixtures were frozen at −80° C. for 30 minutes. The mixtures were melted at room temperature and then collected in 1.5 ml centrifuge tubes. The cell lysates were centrifuged at 15,000 rpm for 10 minutes to precipitate cell residues, and 25 μL of supernatant was dispensed into a 96 well plate (Black, Nunc). To the dispensed supernatant, 25 μL of a luciferase substrate solution contained in a luciferase assay system (Nano-Glo (registered trademark) Luciferase Assay System, Promega Corporation) was added and mixed. The luminescence amount of the resulting mixture per 1 well per 0.1 seconds was measured by using a luminometer (Mithras LB 940, Berthold).

B1: vector 1-30: CMV-promoter vector with Cre gene cleaved by ApaI/NheI, 30-base homologous sequences at the cleavage site (from SEQ ID NO: 11) (nucleic acid)
DNA: AGTGAACCGTCAGATCCTCGAGATCTGCGATCTAAGTAATGTCCAATTTACTGACCGTACACCAAAATTTGCCTGCATTACCGGTCGATGCAACGAGTGATGAGGTTCGCAAGAACCTGATGGACATGTTCAGGGATCGCCAGGCGTTTTCTGAGCATACCTGGAAAATGCTTCTGTCCGTTTGCCGGTCGTGGGCGGCATGGTGCAAGTTGAATAACCGGAAATGGTTTCCCGCAGAACCTGAAGATGTTCGCGATTATCTTCTATATCTTCAGGCGCGCGGTCTGGCAGTAAAAACTATCCAGCAACATTTGGGCCAGCTAAACATGCTTCATCGTCGGTCCGGGCTGCCACGACCAAGTGACAGCAATGCTGTTTCACTGGTTATGCGGCGGATCCGAAAAGAAAACGTTGGGGCCCGTTAACGCTAGCTTATGCGGCGGATCCGAAAAGAAAACGTTGATGCCGGTGAACGTGCAAAACAGGCTCTAGCGTTCGAACGCACTGATTTCGACCAGGTTCGTTCACTCATGGAAAATAGCGATCGCTGCCAGGATATACGTAATCTGGCATTTCTGGGGATTGCTTATAACACCCTGTTACGTATAGCCGAAATTGCCAGGATCAGGGTTAAAGATATCTCACGTACTGACGGTGGGAGAATGTTAATCCATATTGGCAGAACGAAAACGCTGGTTAGCACCGCAGGTGTAGAGAAGGCACTTAGCCTGGGGGTAACTAAACTGGTCGAGCGATGGATTTCCGTCTCTGGTGTAGCTGATGATCCGAATAACTACCTGTTTTGCCGGGTCAGAAAAAATGGTGTTGCCGCGCCATCTGCCACCAGCCAGCTATCAACTCGCGCCCTGGAAGGGATTTTTGAAGCAACTCATCGATTGATTTACGGCGCTAAGGATGACTCTGGTCAGAGATACCTGGCCTGGTCTGGACACAGTGCCCGTGTCGGAGCCGCGCGAGATATGGCCCGCGCTGGAGTTTCAATACCGGAGATCATGCAAGCTGGTGGCTGGACCAATGTAAATATTGTCATGAACTATATCCGTAACCTGGATAGTGAAACAGGGGCAATGGTGCGCCTGCTGGAAGATGGCGATTAGGGCCGCGACTCTAGAACTAGTGGATCCCCC
modifications: misc_feature 1..1148 vector 1-30
For B1, the “luminescence amount ratio (luminescence intensity with vector 2 alone assumed to be 1)” value (from here on “luminescence amount ratio”) was 0.37 and the “NanoLuc luminescence intensity (RLU)” value was ~2.4×10^5 RLU.

B2: vector 1-10: CMV-promoter vector with Cre gene cleaved by ApaI/NheI, 10-base homologous sequences at the cleavage site (from SEQ ID NO: 9) (nucleic acid)
DNA: AGTGAACCGTCAGATCCTCGAGATCTGCGATCTAAGTAATGTCCAATTTACTGACCGTACACCAAAATTTGCCTGCATTACCGGTCGATGCAACGAGTGATGAGGTTCGCAAGAACCTGATGGACATGTTCAGGGATCGCCAGGCGTTTTCTGAGCATACCTGGAAAATGCTTCTGTCCGTTTGCCGGTCGTGGGCGGCATGGTGCAAGTTGAATAACCGGAAATGGTTTCCCGCAGAACCTGAAGATGTTCGCGATTATCTTCTATATCTTCAGGCGCGCGGTCTGGCAGTAAAAACTATCCAGCAACATTTGGGCCAGCTAAACATGCTTCATCGTCGGTCCGGGCTGCCACGACCAAGTGACAGCAATGCTGTTTCACTGGTTATGCGGCGGGGCCCGTTAACGCTAGCTTATGCGGCGGATCCGAAAAGAAAACGTTGATGCCGGTGAACGTGCAAAACAGGCTCTAGCGTTCGAACGCACTGATTTCGACCAGGTTCGTTCACTCATGGAAAATAGCGATCGCTGCCAGGATATACGTAATCTGGCATTTCTGGGGATTGCTTATAACACCCTGTTACGTATAGCCGAAATTGCCAGGATCAGGGTTAAAGATATCTCACGTACTGACGGTGGGAGAATGTTAATCCATATTGGCAGAACGAAAACGCTGGTTAGCACCGCAGGTGTAGAGAAGGCACTTAGCCTGGGGGTAACTAAACTGGTCGAGCGATGGATTTCCGTCTCTGGTGTAGCTGATGATCCGAATAACTACCTGTTTTGCCGGGTCAGAAAAAATGGTGTTGCCGCGCCATCTGCCACCAGCCAGCTATCAACTCGCGCCCTGGAAGGGATTTTTGAAGCAACTCATCGATTGATTTACGGCGCTAAGGATGACTCTGGTCAGAGATACCTGGCCTGGTCTGGACACAGTGCCCGTGTCGGAGCCGCGCGAGATATGGCCCGCGCTGGAGTTTCAATACCGGAGATCATGCAAGCTGGTGGCTGGACCAATGTAAATATTGTCATGAACTATATCCGTAACCTGGATAGTGAAACAGGGGCAATGGTGCGCCTGCTGGAAGATGGCGATTAGGGCCGCGACTCTAGAACTAGTGGATCCCCC
modifications: misc_feature 1..1128 vector 1-10
For B2, the “luminescence amount ratio” value was 0.45 and the “NanoLuc luminescence intensity (RLU)” value was “about 2.9×10^5 RLU”.

B3: vector 1-20: CMV-promoter vector with Cre gene cleaved by ApaI/NheI, 20-base homologous sequences at the cleavage site (from SEQ ID NO: 10) (nucleic acid)
DNA: AGTGAACCGTCAGATCCTCGAGATCTGCGATCTAAGTAATGTCCAATTTACTGACCGTACACCAAAATTTGCCTGCATTACCGGTCGATGCAACGAGTGATGAGGTTCGCAAGAACCTGATGGACATGTTCAGGGATCGCCAGGCGTTTTCTGAGCATACCTGGAAAATGCTTCTGTCCGTTTGCCGGTCGTGGGCGGCATGGTGCAAGTTGAATAACCGGAAATGGTTTCCCGCAGAACCTGAAGATGTTCGCGATTATCTTCTATATCTTCAGGCGCGCGGTCTGGCAGTAAAAACTATCCAGCAACATTTGGGCCAGCTAAACATGCTTCATCGTCGGTCCGGGCTGCCACGACCAAGTGACAGCAATGCTGTTTCACTGGTTATGCGGCGGATCCGAAAAGGGCCCGTTAACGCTAGCTTATGCGGCGGATCCGAAAAGAAAACGTTGATGCCGGTGAACGTGCAAAACAGGCTCTAGCGTTCGAACGCACTGATTTCGACCAGGTTCGTTCACTCATGGAAAATAGCGATCGCTGCCAGGATATACGTAATCTGGCATTTCTGGGGATTGCTTATAACACCCTGTTACGTATAGCCGAAATTGCCAGGATCAGGGTTAAAGATATCTCACGTACTGACGGTGGGAGAATGTTAATCCATATTGGCAGAACGAAAACGCTGGTTAGCACCGCAGGTGTAGAGAAGGCACTTAGCCTGGGGGTAACTAAACTGGTCGAGCGATGGATTTCCGTCTCTGGTGTAGCTGATGATCCGAATAACTACCTGTTTTGCCGGGTCAGAAAAAATGGTGTTGCCGCGCCATCTGCCACCAGCCAGCTATCAACTCGCGCCCTGGAAGGGATTTTTGAAGCAACTCATCGATTGATTTACGGCGCTAAGGATGACTCTGGTCAGAGATACCTGGCCTGGTCTGGACACAGTGCCCGTGTCGGAGCCGCGCGAGATATGGCCCGCGCTGGAGTTTCAATACCGGAGATCATGCAAGCTGGTGGCTGGACCAATGTAAATATTGTCATGAACTATATCCGTAACCTGGATAGTGAAACAGGGGCAATGGTGCGCCTGCTGGAAGATGGCGATTAGGGCCGCGACTCTAGAACTAGTGGATCCCCC
modifications: misc_feature 1..1138 vector 1-20
In the case of B3, the “luminescence amount ratio” value is reported as 0.31 and the “NanoLuc luminescence intensity (RLU)” value is reported as ~2.0×10^5 RLU.
